# Test: yeast display, Sf9 membrane polyspecificity reagent, FACS + sequencing; frameworks hold sequencing errors
# Procedure, shortened: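 A synthetic nanobody library was expressed on Saccharomyces cerevisiae BJ5465 by galactose induction for 36–48 hours. The library was stained for 1 hour at 4 °C with 10% biotinylated, detergent-solubilized Sf9 membrane reagent and enriched with streptavidin microbeads before FACS. Low and high (top ~1%) gates were set on anti-HA fluorescence for expression and streptavidin fluorescence for reagent binding, and each polyreactivity label reflects the gate of origin.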
row,Sequence,polyreactivity (PSR sort gate)
1,QVQLVESGGGLVQAGGSLRLSCAASGFTFRYYAMGWYRQAPGKEREFVAAIRSSGTTTSYADSVKGRFTISRDNAKNTVYLHMHSLKPEDTAVYYCAAGYFGPQQYYYWGQGTQVTVSS,high polyreactivity
2,QVQLVESGGGLVQAGGSLRLSCAASGFTFRYYAMGWYRQAPGKEREFVAAISRGGGTTYYADSVKGRFTISRDNAKNTVYLQMNSLKPEDTAVYYCATRALYWRYGYDYWGQGTQVTVSS,high polyreactivity
3,QVQLVESGGGLVQAGGSLRLSCAASGFTFRYYAMGWYRQAPGKERELVAAINYSGGSTFYADSVKGRFTISRDNAKNTVYLQMNSLKPEDTAVYYCAATRLTPYIYGGKYNYWGQGTQVTVSS,high polyreactivity
4,QVQLVESGGGLVQAGGSLRLSCAASGFTFRYYAMGWYRQAPGKERELVAAITGSGVNTYYADSVKGRFTISRDNAKNTVYLQMNSLKPEDTAVYYCAAESESDPLFERYYWGQGTQVTVSS,high polyreactivity
5,QVQLVESGGGLVQAGGSLRLSCAASGFTFRYYAMGWYRQAPGKERELVAAITNVGSTNYADSVKGRFTMSRDNAKHTVYLQMNSLKPEDTAVYYCNARDYYSYDYWGQGTQVTVST,high polyreactivity
6,QVQLVESGGGLVQAGGSLRLSCAASGFTFRYYAMGWYRQAPGKERELVAAITSGDSTYYADSVKGRFTISRDNAKNTVYLQMNSLKPEDTAVYYCAAYYYGYDYWGQGTQVTVSS,high polyreactivity
7,QVQLVESGGGLVQAGGSLRLSCAASGFTFRYYAMGWYRQAPGKERELVAAITSGGGSTYYADSVKGRFTISRDNAKNTVYLQMNSLKPEDTAVYYCATKRARYSYDYWGQGTQVTVSS,high polyreactivity
8,QVQLVESGGGLVQAGGSLRLSCAASGFTFRYYAMGWYRQAPGKERELVAAITSRGGNTYYADSVKGRFTISRDNAKNTVYLQMNSLKPEDTAVYYCAARYSTTMDYWGQGTQVTVSS,high polyreactivity
9,QVQLVESGGGLVQAGGSLRLSCAASGFTFRYYAMGWYRQAPGKERELVAAITWSGGRTYYADSVKGRFTISRDNAKNTVYLQMNSLKPEDTAVYYCNTPSLWSGEDYWGQGTQVTVSS,high polyreactivity
10,QVQLVESGGGLVQAGGSLRLSCAASGFTFRYYAMGWYRQAPGKERELVAGISRGGSTYYADSVKGRFTISRDNAKNSVYLQMNSLKPEDTAVYYCAARSYARKSYEMGYWGQGTQVTVSS,high polyreactivity
11,QVQLVESGGGLVQAGGSLRLSCAASGFTFRYYAMGWYRQAPGKERELVAGISWSGSRTYYADSVKGRFTISRDNAKNTVYLQMNSLKPEDTAVYYCAKVNSYGPVPDRYDYWGQGTQVTVSS,high polyreactivity
12,QVQLVESGGGLVQAGGSLRLSCAASGFTFRYYAMGWYRQAPGKERELVARISSRGGSTNYADSVKGRFTISRDNAKNTVYLQMNSLKAEDTAVYFCAAASWNSNRHYYVARYYYWGQGTQVTVSS,high polyreactivity
13,QVQLVESGGGLVQAGGSLRLSCAASGFTFRYYAMGWYRQAPGKERELVASINWSGGSTYYADSVKGRFTISRDNAKNTVYFQMNSLKPEDTAVYYCAADSIWGHYFARFDYWVQGTQVTVSS,high polyreactivity
14,QVQLVESGGGLVQAGGSLRLSCAASGFTFRYYAMGWYRQAPGKERELVASISRSGSTNYADSVKGRFTISRDNAKNTVYLQMNSLKPEDTAVYYCAAQLYSRGGYWGQGTQVTVSS,high polyreactivity
15,QVQLVESGGGLVQAGGSLRLSCAASGFTFRYYAMGWYRQAPGQERELVAAITRGAGSTYYADSVKGRFTISRDNAKNTDYFQMNSLKPEDTAVYYCAAEFFQYYVATPFDPSNYWGQGTQVTVSS,low polyreactivity
16,QVQLVESGGGLVQAGGSLRLSCAASGFTFRYYAMGWYRQEPGKERELVAAISRSDSRTYADSVKGRFTISRDNAMNTVYIQMNSLNPEDTAVYYCNARYGYSSYVFIFDYWGQGTQVTVSS,high polyreactivity
17,QVQLVESGGGLVQAGGSLRLSCAASGFTFRYYTMGWYRQAPGKERELVARITTGGSTYYADPVKGRFTISRDNAKKTVYLQMNSLKPEDTAVYFCAARLSRWWPPTGVHYTDRYYWGQGTQVTVSS,high polyreactivity
18,QVQLVESGGGLVQAGGSLRLSCAASGFTFRYYTMGWYRQAPGKERELVASITWRGGSTYYADSVKARFTISRDNAKNTVYLQMNSMKPEDTAVYYCNAERPYQYYPGIYRWYYYWGQGTQVTVSS,low polyreactivity
19,QVQLVESGGGLVQAGGSLRLSCAASGFTFRYYVMGWYRQAPGIERELVAAISWSGGSTYYADSVKGRFTISRDNAKYTVYLQMNSLNPEDTAVYYCNAASLSKSDYWGQGTQVTVSS,high polyreactivity
20,QVQLVESGGGLVQAGGSLRLSCAASGFTFRYYVMGWYRQAPGKERELVARISTGASTHYADSVKGRFTISRDNAKNSVYLQKNSLKPEDTAVYYCASDHPAFGPGYSFDYWGLGTQVTVSS,low polyreactivity
21,QVQLVESGGGLVQAGGSLRLSCAASGFTFSAYAMGWSRQAPGKERELVAAITLRGGSTYYADSVKGRFTISRDNAKNTVYLQMNSLKPEDTAVYYCAADRIYVAYDYWGQGTQVTVSS,low polyreactivity
22,QVQLVESGGGLVQAGGSLRLSCAASGFTFSEYAMGWYRQAPGKERELVAAISQRGGSTYYADSVKGRFTISRDNAKNTVYLQMNSLKPEDTAVYYCAADSARYYGAKRFGYWGQGTQVTVSS,high polyreactivity

row,Sequence,polyreactivity (PSR sort gate)
1,QVQLVESGGGLVQAGGSLRLSCAASGFTFSEYAMGWYRQAPGKERELVAAISRGTSTYYADSVKGRFTISRDNAKNTVYLQMNSVKPEDTAVYYCAAAPSYYPARHGYWGQVTQVTVSS,low polyreactivity
2,QVQLVESGGGLVQAGGSLRLSCAASGFTFSFYAMGCDRQAPGKERELVATISSGGSTTYADSVKGRFTISRDNANNTVYLHMNSLKPEDTAVYYCAARYGRVRNYRYDYWGKGTQVTVSS,high polyreactivity
3,QVQLVESGGGLVQAGGSLRLSCAASGFTFSFYAMGWYRQAPGKERELVAPISYSGGITYYADSVKGRFTISRENWKNTVYLQMNSLKPEDTAVYYCAAVPYYSKGSSHYNSGNNYCGQGTQVTVSS,low polyreactivity
4,QVQLVESGGGLVQAGGSLRLSCAASGFTFSFYSMGWYRQAPGKERELVASISDSDGITFYADSVKGSFTISRDNAKNTVYLQMNSLKPEDTAVYYCAADVAIAIPFSYDYWGQGTQVTVSS,low polyreactivity
5,QVQLVESGGGLVQAGGSLRLSCAASGFTFSGYAMGWYRQAPGKERELVAAISTSGGNTYYADSVKGRFTISRDNAKNTVYLQMNSLKPEDTAVYYCAADDWPWGDAGVDYWGQGTLVTVSS,low polyreactivity
6,QVQLVESGGGLVQAGGSLRLSCAASGFTFSHNAMGWYRQAPGKERELVAAISGSGGRTYYADSVKGRFTISRDNAKNTVYLQMNSLKPEDTAVYYCNAGRWWRRGYGYWGQGTQVTVSS,high polyreactivity
7,QVQLVESGGGLVQAGGSLRLSCAASGFTFSINTMGWYRQAPGKERQFVAGISRSGGSTYYADSVKWRFTISRDNAKNTVYLQMNSLKPEDTAVYYCAAGGPYWSRYEYWGQGNQVTVSS,high polyreactivity
8,QVQLVESGGGLVQAGGSLRLSCAASGFTFSLYAMGWYRQAPGKEREMVAAISRIGGRTYYADSVKGRFTISRDNAKNTVYLQMNSLKPEDTAVYYCAARQGYRSYRRYDYWGQGTQVTVSS,high polyreactivity
9,QVQLVESGGGLVQAGGSLRLSCAASGFTFSNYAMGWYRQAPGKERELVAAISFRTGRTYYADSVKGRFTISRDNAKNTVYLQMNSLKPEDTAVYYCAAVVQSSEPVEYDYWGQGTQVTVSS,high polyreactivity
10,QVQLVESGGGLVQAGGSLRLSCAASGFTFSPNAMGWDRQAPGKERELVATISWNGGRTHYADSVKGRFTISRDNANKTVYLQMNSLKPEDTAVYYCNVVRATGRYYYWGQGTQVTVSS,high polyreactivity
11,QVQLVESGGGLVQAGGSLRLSCAASGFTFSQYAMGWYRQAPGKERELVAAISRSGGSTYYADSVKGRFTISRDNAKNTVYLQMNSLKPEDTAVYYCAARGPVGYGWRYRPWHDYWGQGTQVTVSS,high polyreactivity
12,QVQLVESGGGLVQAGGSLRLSCAASGFTFSRNAMGWYRQAPGKERELVAAISQSGGSTYYADSVKGRFTISRDNAKNTVYLQMNSRKPEDTAVYYCAATGWIIIKPTSSLKFNYWGQGTQVTVSS,high polyreactivity
13,QVQLVESGGGLVQAGGSLRLSCAASGFTFSRNAMGWYRQAPGKERELVAAITWSGGRTYYADSVKGRFTLSRDNAKNTVYLQMNSLKPEDTAVYYCAARKYHLRSAYDYWGHGTQVTVSS,low polyreactivity
14,QVQLVESGGGLVQAGGSLRLSCAASGFTFSRNTMGWYRQAPGKEREFVAGIRRSGSSTYYADSVKGRFTISRDNAKNTVYLQMNSLKPEDTAVYYCARVNGAKQGGEYDYWGQGTQVTVSS,high polyreactivity
15,QVQLVESGGGLVQAGGSLRLSCAASGFTFSRNTMGWYRQAPGKERELVARISASGGSTYYADSVKGRFTISRDNAKNTVYLQMNSLKPEDTAVYYCAAVYRRYGGSRYDYWGQGTQVTVSS,high polyreactivity
16,QVQLVESGGGLVQAGGSLRLSCAASGFTFSRNTMGWYSQAPGKERELVARISASGGSTYFADSVKGRITISRDNAKNTVYLQMTSLKQEATAVYYCAAVYRRYGGSRYDYWGQGTQVTVSS,high polyreactivity
17,QVQLVESGGGLVQAGGSLRLSCAASGFTFSRNTMGWYSQAPGKERELVARISASGGSTYYADSVKGRITISRDNAKNTVYLQMNSLKPEATAVYYCAAVYRRYGGSRYDYWGQGTQVTVSS,high polyreactivity
18,QVQLVESGGGLVQAGGSLRLSCAASGFTFSRNVMGWYRQAPGKERELVADITLSGASTYYADSVKGRFTISRDNAKNTVYLQMNSLKPEDTAVYYCAAEPYHWRWGWRHDYWGQGTQVTVSS,low polyreactivity
19,QVQLVESGGGLVQAGGSLRLSCAASGFTFSRYAMGGYRQAPGKERELVAAISIRGGNTYYADSVKGRFTISRDNAKNTVYLQMNSLKPEDTAVYYCAAAGRYLRYAYWGQGTQVTVSS,high polyreactivity
20,QVQLVESGGGLVQAGGSLRLSCAASGFTFSRYAMGWYRQAPGKERELVAAIDDGGSTYYADSVKGRFTISRDNAKNTVYLQMNSLKPEDTAVYYCNARGYGTLNVRRERMDYWGQGTQVTVSS,high polyreactivity
21,QVQLVESGGGLVQAGGSLRLSCAASGFTFSRYAMGWYRQAPGKERELVAAITRGGSTNYADSVKGRFTISRDNAKNTVYLQMNSLKPEDTAVYYCAVRIRYSTNAYYYWGQGTQVTVSS,high polyreactivity
